Data published in PMC3420232.

Experiments:
[1] = molecular target: TRAILR2-Fas chimeric receptor (human) (UniProt O14763); experiment: radioligand binding; competition on cells: 4x10^5 murine fibroblasts expressing the (chimeric) TRAIL receptor in PFA (PBS, 2% FCS, 0.002% sodium azide), 83 ng/ml 125I-TRAIL with or without unlabeled recombinant human TRAIL (83-5300 ng/ml), 4 hours on ice; cells spun through phthalate oil; 68 kDa used for TRAIL
[2] = molecular target: TRAILR1-Fas chimeric receptor (human) (UniProt O00220); experiment: as above
[3] = molecular target: TNFR1-TRAILR1-Fas chimeric receptor (TM1) (human) (UniProt P19438); experiment: radioligand binding; equilibrium (saturation) binding on cells: 2x10^5 murine fibroblasts expressing the receptor in PFA (PBS, 2% FCS, 0.002% sodium azide), 125I-TNF 0.25-12.5 ng/ml, 2 h on ice; non-specific binding with 200-fold excess of unlabeled protein; cells spun through phthalate oil; one site binding hyperbola; 51 kDa used for TNF; apparent
[4] = molecular target: TNFR1-TRAILR2-Fas chimeric receptor (TM2) (human) (UniProt P19438); experiment: as above

| IC50 [1] | IC50 [2] | Kd [3] | Kd [4] | Substance |
| --- | --- | --- | --- | --- |
| 5.5 nM | 16.8 nM |  |  | Flag-tagged recombinant human TRAIL (sTRAIL), unlabeled (from UniProt P50591 95-281) (ligand) |
|  |  | 225 nM | 71 nM | 125I-labeled recombinant human TNF (from UniProt P01375 77-233) (ligand) |
